Measured values published in article doi:10.1101/2025.04.18.649563.
pKd: −log10 of the molar value. Several values for one entry are separate records, joined by “and”; a condition that tells them apart may be missing. Equal entries are not always repeated.

Biological target: actin purified from muscle acetone powder (ground beef); polymerised to F-actin (Bos taurus (ground beef)) (UniProt P68138)
Assay: co-sedimentation

In the case of “Lfat1 ABD [change], recombinant (from UniProt Q5ZVQ3 138-355) (domain or fragment)”, the pKd was 4.72 and 4.79 and 4.20.
